Amyloid nucleation score data for 137 substances are collected here from the supplement of paper PMC12042874.

± gives the uncertainty stated by the source.

A short description of the first series: amyloid nucleation score (Sup35N fusion, yeast selection) (log enrichment); library NNK2; higher = more nucleation; inactive = no reads after selection. The method in brief: (§1)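 Nucleation score: DiMSum log enrichment of output over input reads, centred on the mode score of non-aggregating sequences. Only sequences with at least 100 input reads were kept. Reads came from Illumina sequencing of plasmid inserts before and after 7 days of growth at 30°C without adenine and uracil, in psi-negative yeast expressing Sup35N fused to peptides of 20 random codons after 24 hours of induction with 100 μM copper sulfate.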
In the case of NVFSS, the amyloid nucleation score is -0.42 ± 0.35.
Still for that read-out and setting: as for LEVHKGGLNVLSHEGLDVET, the figure is 1.19 ± 0.4; as for LAFYSFIRYTRLSIEMVAIS, -0.741 ± 0.31; as for RKISMTN, -0.573 ± 0.3.
For the substance DRLGSRERDG, the amyloid nucleation score turned out to be 0.74 ± 0.2.
Same read-out and setting: as for SLVFNQAHWNRLIPTT, the figure is -1.02 ± 0.63; as for FNTGSSMLLLIRVMVGKFGG, -1.57 ± 1.1.
Still for that read-out and setting: as for VTRSLLLCHFSTCCFSALTW, the figure is -0.086 ± 0.32; as for GNYNLALDLPLTFERFRQSH, -0.736 ± 0.44; as for LNSHSITMLLNSVCGCQSWT, 9.201 ± 0.062.
Same read-out and setting: as for NCTHPFDMTPNFFWSYGIVG, the figure is -0.656 ± 1.1; as for LVLYGNVA, 0.28 ± 0.74.
Regarding DDLLIRYC, the amyloid nucleation score was -0.022 ± 0.21.
Same read-out and setting: the value for YKMPK was 0.443 ± 0.8; that for YASISI was “inactive”.
NLMVVRRSDHSRPGNCHWQA had an amyloid nucleation score of 0.381 ± 0.3.
On the same count and under the same terms, the value for TGYVTRIVAAFCSQKIFVWV was -0.547 ± 0.49; that for YYTCTLSRWRQSAYLGGRLR was 0.284 ± 0.26; that for ISSHVSCKSAFEAS was 0.395 ± 0.64.
With SRWKGSRF, the amyloid nucleation score stood at 0.764 ± 0.26.
The same measure, in the same setting: as for LDLMKSSLGCQKG, the figure is -0.001 ± 0.23; as for AFRFWFHGSMLVAHLSSWYY, 2.88 ± 0.083; as for VARVY, -0.625 ± 0.36.
SQGCVICGFYLLWHPNRHCQ had an amyloid nucleation score of 9.447 ± 0.051.
On the same count and under the same terms, the value for LLERSRSSIMCTTNRSLELI was 3.18 ± 0.055.
Same read-out and setting: as for CCKITDMAPNPVETWKYSKR, the figure is 0.786 ± 0.27; as for HMLAPCFNM, -1.58 ± 0.78.
For SYTVAYISYFMLLLDGWGNR, the amyloid nucleation score was found to be 0.815 ± 0.12.
Still for that read-out and setting: as for KRSKSR, the entry is “inactive”.
On the same count and under the same terms, the value for NPLRWEWAGVWLRYTR was 0.816 ± 0.58; that for RSWVLLSYAPFHCS was 0.482 ± 0.19; that for FPIFKHDWLFYWCTPSIKGR was -1.06 ± 0.31.
On the same count and under the same terms, as for PDVVNNGGSYHLHWGCWCW, the figure is 3.25 ± 0.14; as for VGFLYACYFRGTAVNETGYT, 1.15 ± 0.13; as for SFRTAHSAPEVGMLEVYMNL, 0.334 ± 0.5.
The substance SMTCRDLFSWYGSWYQSILF had an amyloid nucleation score of 0.874 ± 0.47.
Still for that read-out and setting: the value for KYERYLNRFSLLLRTAMVHR was -0.362 ± 0.29; that for FLFETMVIFSSSEMVWRDWC was 0.192 ± 1; that for CDSRCRYLAEYRFI was 0.151 ± 0.27.
On to AFPPE, for which the amyloid nucleation score was -0.726 ± 1.1.
Take VAMSCGRSYLKCLMACGLHM: the amyloid nucleation score was -0.053 ± 1.
FLIVPKILNICL registered an amyloid nucleation score of 7.746 ± 0.077.
The same measure, in the same setting: as for MPHLVVTNAPGVSIRVGSDW, the figure is -0.888 ± 0.78.
As for SCAGSWNNKGGSKLQWDFLV, the amyloid nucleation score was -1.82 ± 0.75.
On the same count and under the same terms, as for RSFGLSDPIKTTGKTSV, the entry is “inactive”; as for ICFWMACKIECCQQRTNFVS, -0.139 ± 0.26.
Still for that read-out and setting: as for GRTYNVTEFLKSRTRWGSPL, the figure is 1.19 ± 0.59.
Still for that read-out and setting: the value for INTSNQFFGYLYLWVSRYRY was -1.03 ± 0.54.
As to LRFNSNHPHFRGHLYSAVQR, the amyloid nucleation score was determined as 3.7 ± 0.15.
On the same count and under the same terms, as for FSFLGDPKNERTVSWVMGHR, the figure is 0.478 ± 0.32; as for KAIGCAIKTFRYIYWIIWLL, “inactive”.
On the same count and under the same terms, as for VYLDWFYWPDTIHG, the figure is 4.87 ± 0.075; as for PEFITEFQALASFEYVMLRF, -1.23 ± 0.41.
Consider EFLLNMAYSSGGSWTEVFRV, for which the amyloid nucleation score is -0.005 ± 0.63.
The substance ERHNAELRHPAQYLEFTTLG showed an amyloid nucleation score of 1.38 ± 0.37.
Consider SVWDYC, for which the amyloid nucleation score is -0.053 ± 0.39.
As to GDKLIEGRASGKGNWILERG, the amyloid nucleation score was 1.19 ± 0.34.
Still for that read-out and setting: as for KKVFLTFLEFVFNAISGWWV, the figure is -0.67 ± 0.79.
On the same count and under the same terms, the value for TVIGFRDRDSWSMEMIEDHC was -0.272 ± 0.43.
Same read-out and setting: the value for WHNITWYMFGPFMPGGEMLM was 0.446 ± 0.5.
YMLINAMVTFFMHGVDRKRR gave an amyloid nucleation score of 5.516 ± 0.055.
Same read-out and setting: the value for RCEFSACMCGVCGAYKCMRF was 5.3 ± 0.064; that for ANWPR was -0.391 ± 0.79.
The same measure, in the same setting: the value for IFRISPSLGKRYGVRPERSW was 1.32 ± 0.38; that for LDCIS was -0.647 ± 0.55; that for NWGTGQPYNRMCMVH was “inactive”.
Same read-out and setting: as for IFNVSMSIVRSLVITCMWGL, the figure is 5.321 ± 0.043.
Regarding FMLAHVYVNV, the amyloid nucleation score is -1.01 ± 0.78.
In turn, RPLFEFWPKPPL showed an amyloid nucleation score of 2.17 ± 0.14.
Consider HSLFSIAWFVAQYMNFGPDN, for which the amyloid nucleation score was 3.1 ± 0.18.

A short description of a further series: amyloid nucleation score (Sup35N fusion, yeast selection) (log enrichment); library NNK3; higher = more nucleation; inactive = no reads after selection. In a few lines: as §1
For NVFSS, the amyloid nucleation score result is “inactive”.

The next series is described as follows: amyloid nucleation score (Sup35N fusion, yeast selection) (log enrichment); library NNK1; higher = more nucleation; inactive = no reads after selection. The method in brief:
as §1
Turning to SVKRMWYLDV, the amyloid nucleation score was -0.483 ± 0.32.
On the same count and under the same terms, as for GYTKILMRHSNFCMTK, the figure is 0.428 ± 0.19.
Same read-out and setting: as for VSCWRTVRTAF, the figure is 0.893 ± 0.59; as for MFFGWLFHYLLSSTYMFVSL, -0.266 ± 0.72.
The same measure, in the same setting: as for TGWEVV, the figure is -1.16 ± 0.75.
As for QEINGKAQWSPIHSISTMAA, the amyloid nucleation score was determined as 0.33 ± 0.51.
On the same count and under the same terms, the value for TRRVWLQCLMLSYMAVYISM was 0.044 ± 1.1; that for KYENGCTDTWGMTVASPLIK was -0.515 ± 1; that for MMAFDRRCLGFPMNVGYD was 1.07 ± 0.46.
Same read-out and setting: as for WVNCLFIYWFCFDALPIIVE, the figure is -0.616 ± 0.4; as for VYLNFTISKVEVVTFFFIMG, 0.165 ± 0.34; as for KRNRVAIILWICNNYYEWNN, -0.747 ± 0.39.
Still for that read-out and setting: as for QLGQAICRSLYNVRSYMQGF, the entry is “inactive”; as for PTLLALYGG, -0.414 ± 0.61; as for YLVPELYEMSNS, 1.38 ± 0.79.
For WGLLLE, the amyloid nucleation score came out at 4.13 ± 0.094.
The same measure, in the same setting: the value for SHYNNNHSAGWLLQLFTMAC was 0.05 ± 0.88; that for SLLRARIKVVPV was -1.46 ± 1.6; that for FDDCFSLLIVPDSTVITKEQ was 0.444 ± 0.4.
The substance VSLHSRINTVSPRKGLGSYS displayed an amyloid nucleation score of 0.275 ± 0.71.
As for NRKRFHGMNDASAAYFREVC, the amyloid nucleation score was -1.33 ± 2.7.
In the case of VWTYNLI, the amyloid nucleation score result was “inactive”.
Take MVQAPLTSQPYNNGMVRQK: the amyloid nucleation score is -0.055 ± 0.5.
In the case of FPYILMKRAKQYALGPRHLL, the amyloid nucleation score was -0.435 ± 0.32.
Turning to NSLCEFSMKMFTYNSMGGFI, the amyloid nucleation score was 1.86 ± 0.26.
Turning to TSQTMTCWGSAL, the amyloid nucleation score was 0.93 ± 0.4.
Same read-out and setting: as for LKEDISPSELHTQLC, the figure is 0.81 ± 0.54; as for NMVLRFQCLWFCFISIPF, 3.16 ± 0.14; as for SCHRPVPSRASSEKILGIAC, 0.157 ± 1.4.
On the same count and under the same terms, the value for HPQVTWGSRLAVNFCAWCYG was 4.5 ± 0.054; that for LWSPSQ was 0.202 ± 0.56.
Same read-out and setting: the value for ATFSFGRT was “inactive”.
Regarding FSFLHLVGRWGLIVSNCSDV, the amyloid nucleation score was -0.355 ± 0.64.
Still for that read-out and setting: the value for SVSVSCFVV was “inactive”; that for TVTWASGFMGGVDHCSWGQV was 0.043 ± 0.65.
Still for that read-out and setting: the value for RCHTLFIVSLYRRVRNHMSC was 0.558 ± 0.79.
Same read-out and setting: the value for HMNRVSGVMVVLSRGLAGMN was 2.67 ± 0.23; that for IYFKIVILLRSSFFL was “inactive”.
In the case of LRSVSGCIKFAYGDSCMSLK, the amyloid nucleation score entry is “inactive”.
Same read-out and setting: the value for FRGFR was -0.235 ± 0.4; that for HNYVWCSPC was 7.694 ± 0.07; that for SRNLCSQSWIRTATV was 0.585 ± 0.56.
The same measure, in the same setting: as for LICPSLHPRAVGECSSVCWR, the figure is 0.157 ± 0.19; as for FKYTHIETVIQVLYFRTWSY, -0.485 ± 0.33; as for IVEGVPGTRPHVLAKCSDEC, 0.232 ± 0.3.
As for LFFHL, the amyloid nucleation score came out at 0.83 ± 0.79.
On the same count and under the same terms, the value for LSAEFGSMLRLLCH was “inactive”; that for YYLSLMYSTLYRTKIFWARE was -0.077 ± 0.79; that for TFVVN was 0.677 ± 0.3.
Still for that read-out and setting: the value for TTINIRYPIYSVVMCWYRLE was 5.513 ± 0.045; that for KFVWVIAVDVDSRCKFCCGS was 0.354 ± 0.82.
Still for that read-out and setting: as for SIYYKARSEWSMASAIDGYV, the figure is 0.85 ± 0.72; as for GSSKWISSHRVIDDFSYKRG, 0.406 ± 0.49; as for PYVGHVGVKRDSNCK, 0.206 ± 1.1.
On to ISVMEFFVISGFTNWVKCFV, for which the amyloid nucleation score was determined as 1.06 ± 0.31.
The same measure, in the same setting: the value for LLLSILRWDEDMMLNFW was 1.21 ± 0.43; that for GMDLQVMSHCASIHNNS was -0.199 ± 0.37.
For EMTRLLNSCIKYQYSRQRYA, the amyloid nucleation score was -0.97 ± 1.2.
HREMMWQGKRV: the amyloid nucleation score result was “inactive”.
Same read-out and setting: as for DFNSISDAKNCWSYLM, the figure is 1.25 ± 0.13.
The same measure, in the same setting: as for HSRSCKSFLI, the entry is “inactive”; as for LYVDGGPCPTAELGQRSYEK, -0.17 ± 0.42; as for VQFLIKPDLMTG, “inactive”.
Same read-out and setting: as for WDWHIGRKWV, the figure is -0.629 ± 0.62; as for YGCVCGSDNTHWNYMLVNNH, 7.222 ± 0.051; as for PFGVVGDVFQSTLC, 0.371 ± 0.84.
Regarding WSHADILV, the amyloid nucleation score result was “inactive”.
